B1: Hammerhead Ribozyme (parent)
chain: ACCGGAUGUGCUUUCCGGUCUGAUGAGUCCGUGAGGACGAAACAG

Variants of: B1
Assay: self-cleavage, relative activity (ratio to wild type); higher = more cleavage; co-transcriptional

Row | Variant | self-cleavage
1 | ACCGGAUGUGCUUUCCGGUCCGAUGAGUUCGUGAGGACGAAACAG [U21C C29U] | 0.84
2 | ACCGGAUGUGCUUUCCGGUCCGAUGAGUGCGUGAGGACGAAACAG [U21C C29G] | 0.507
3 | ACCGGAUGUGCUUUCCGGUCCGAUGAGUACGUGAGGACGAAACAG [U21C C29A] | 0.37
4 | ACCGGAUGUGCUUUCCGGUCAGAUGAGUCCGUGAGGACCAAACAG [U21A G39C] | 0.32
5 | ACCGGAUGUGCUUUCCGGUCAGAUGAGUCCGUGAGGACUAAACAG [U21A G39U] | 0.301
6 | ACCGGAUGUGCUUUCCGGUCAGAUGAGUCCGUGAGGACAAAACAG [U21A G39A] | 0.311
7 | ACCGGAUGUGCUUUCCGGUCCGAUGAUUCCGUGAGGACGAAACAG [U21C G27U] | 0.361
8 | ACCGGAUGUGCUUUCCGGUCCGAUGACUCCGUGAGGACGAAACAG [U21C G27C] | 0.557
9 | ACCGGAUGUGCUUUCCGGUCCGAUGAAUCCGUGAGGACGAAACAG [U21C G27A] | 0.597
10 | ACCGGAUGUGCUUUCCGGUCGGAUGAGUCCGUGAGGGCGAAACAG [U21G A37G] | 0.454
11 | ACCGGAUGUGCUUUCCGGUCGGAUGAGUCCGUGAGGCCGAAACAG [U21G A37C] | 0.427
12 | ACCGGAUGUGCUUUCCGGUCGGAUGAGUCCGUGAGGUCGAAACAG [U21G A37U] | 0.417
13 | ACCGGAUGUGCUUUCCGGUCAGAUGAGUCCGAGAGGACGAAACAG [U21A U32A] | 0.539
14 | ACCGGAUGUGCUUUCCGGUCAGAUGAGUCCGCGAGGACGAAACAG [U21A U32C] | 0.508
15 | ACCGGAUGUGCUUUCCGGUCAGAUGAGUCCGGGAGGACGAAACAG [U21A U32G] | 0.515
16 | ACCGGAUGUGCUUUCCGGUCGGAUGAGUCCGUGAGGACGACACAG [U21G A41C] | 0.404
17 | ACCGGAUGUGCUUUCCGGUCCGAUGAGUCCGUGAGGACGAGACAG [U21C A41G] | 0.297
18 | ACCGGAUGUGCUUUCCGGUCCGAUGAGUCCGUGAGGACGACACAG [U21C A41C] | 0.329
19 | ACCGGAUGUGCUUUCCGGUCCGAUGAGUCCGUGAGGACGAUACAG [U21C A41U] | 0.469

Row | Variant | self-cleavage
20 | ACCGGAUGUGCUUUCCGGUCCGAUGAGUCCGAGAGGACGAAACAG [U21C U32A] | 0.71
21 | ACCGGAUGUGCUUUCCGGUCCGAUGAGUCCGCGAGGACGAAACAG [U21C U32C] | 0.96
22 | ACCGGAUGUGCUUUCCGGUCCGAUGAGUCCGGGAGGACGAAACAG [U21C U32G] | 0.947
23 | ACCGGAUGUGCUUUCCGGUCCGAUGAGUCCGUGAAGACGAAACAG [U21C G35A] | 0.741
24 | ACCGGAUGUGCUUUCCGGUCCGAUGAGUCCGUGAUGACGAAACAG [U21C G35U] | 0.727
25 | ACCGGAUGUGCUUUCCGGUCCGAUGAGUCCGUGACGACGAAACAG [U21C G35C] | 0.681
26 | ACCGGAUGUGCUUUCCGGUCCGAUGAGUCCGUGAGGACGAAACAC [U21C G45C] | 0.416
27 | ACCGGAUGUGCUUUCCGGUCCGAUGAGUCCGUGAGGACGAAACAU [U21C G45U] | 0.553
28 | ACCGGAUGUGCUUUCCGGUCCGAUGAGUCCGUGAGGACGAAACAA [U21C G45A] | 0.436
29 | ACCGGAUGUGCUUUCCGGUCCGAUGAGUCAGUGAGGACGAAACAG [U21C C30A] | 0.494
30 | ACCGGAUGUGCUUUCCGGUCCGAUGAGUCUGUGAGGACGAAACAG [U21C C30U] | 0.891
31 | ACCGGAUGUGCUUUCCGGUCCGAUGAGUCGGUGAGGACGAAACAG [U21C C30G] | 0.403
32 | ACCGGAUGUGCUUUCCGGUCAGAUGAGUCCGUAAGGACGAAACAG [U21A G33A] | 0.808
33 | ACCGGAUGUGCUUUCCGGUCAGAUGAGUCCGUUAGGACGAAACAG [U21A G33U] | 0.55
34 | ACCGGAUGUGCUUUCCGGUCAGAUGAGUCCGUCAGGACGAAACAG [U21A G33C] | 0.584
35 | ACCGGAUGUGCUUUCCGGUCCGAUGCGUCCGUGAGGACGAAACAG [U21C A26C] | 0.404
36 | ACCGGAUGUGCUUUCCGGUCCGAUGGGUCCGUGAGGACGAAACAG [U21C A26G] | 0.295
37 | ACCGGAUGUGCUUUCCGGUCCGAUGUGUCCGUGAGGACGAAACAG [U21C A26U] | 0.503
38 | ACCGGAUGUGCUUUCCGGUCCGAUGAGCCCGUGAGGACGAAACAG [U21C U28C] | 0.977

Row | Variant | self-cleavage
39 | ACCGGAUGUGCUUUCCGGUCCGAUGAGGCCGUGAGGACGAAACAG [U21C U28G] | 0.703
40 | ACCGGAUGUGCUUUCCGGUCCGAUGAGACCGUGAGGACGAAACAG [U21C U28A] | 0.573
41 | ACCGGAUGUGCUUUCCGGUCCGAUGAGUCCGUGAGGACGAAACGG [U21C A44G] | 0.852
42 | ACCGGAUGUGCUUUCCGGUCCGAUGAGUCCGUGAGGACGAAACCG [U21C A44C] | 0.454
43 | ACCGGAUGUGCUUUCCGGUCCGAUGAGUCCGUGAGGACGAAACUG [U21C A44U] | 0.571
44 | ACCGGAUGUGCUUUCCGGUCCGGUGAGUCCGUGAGGACGAAACAG [U21C A23G] | 0.354
45 | ACCGGAUGUGCUUUCCGGUCCGUUGAGUCCGUGAGGACGAAACAG [U21C A23U] | 0.708
46 | ACCGGAUGUGCUUUCCGGUCCGCUGAGUCCGUGAGGACGAAACAG [U21C A23C] | 0.771
47 | ACCGGAUGUGCUUUCCGGUCCGAUGAGUCCGUGAGGACGAACCAG [U21C A42C] | 0.28
48 | ACCGGAUGUGCUUUCCGGUCCGAUGAGUCCGUGAGGACGAAUCAG [U21C A42U] | 0.318
49 | ACCGGAUGUGCUUUCCGGUCCGAUGAGUCCGUGAGGACGAAGCAG [U21C A42G] | 0.323
50 | ACCGGAUGUGCUUUCCGGUCCGAUUAGUCCGUGAGGACGAAACAG [U21C G25U] | 0.342
51 | ACCGGAUGUGCUUUCCGGUCCGAUCAGUCCGUGAGGACGAAACAG [U21C G25C] | 0.308
52 | ACCGGAUGUGCUUUCCGGUCCGAUAAGUCCGUGAGGACGAAACAG [U21C G25A] | 0.336
53 | ACCGGAUGUGCUUUCCGGUCCGAUGAGUCCGUGAGGACGAAACAG [U21C] | 0.877
54 | ACCGGAUGUGCUUUCCGGUCGGAUGAGUCCGUGAGGACGAAACAG [U21G] | 0.706
55 | ACCGGAUGUGCUUUCCGGUCAGAUGAGACCGUGAGGACGAAACAG [U21A U28A] | 0.46
56 | ACCGGAUGUGCUUUCCGGUCAGAUGAGCCCGUGAGGACGAAACAG [U21A U28C] | 0.529
57 | ACCGGAUGUGCUUUCCGGUCAGAUGAGGCCGUGAGGACGAAACAG [U21A U28G] | 0.392

From the RNAGym collection of RNA variant scans (doi:10.7554/elife.80360)
